Measured values as given in patent US20240049668A1 (VILMORIN AND CIE, published 2024).

T1: Movement Protein of ToBRFV (Tomato Brown Rugose Fruit Virus …, UniProt A0A0S2SZW1 1-266)
T1 sequence: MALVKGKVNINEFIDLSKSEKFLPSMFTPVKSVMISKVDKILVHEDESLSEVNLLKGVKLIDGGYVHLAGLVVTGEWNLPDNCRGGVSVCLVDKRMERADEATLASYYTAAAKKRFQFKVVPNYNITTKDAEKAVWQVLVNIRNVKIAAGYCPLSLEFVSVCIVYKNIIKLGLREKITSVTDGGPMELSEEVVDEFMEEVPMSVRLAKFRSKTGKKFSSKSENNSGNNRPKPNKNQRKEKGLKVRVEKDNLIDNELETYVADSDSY


These binders were tested against T1, Movement Protein of ToBRFV (assay: cell-based or functional assay).

Binder | HR when expressed with MP Rugose
TM-2-2 variant pJL 468_A (848 A) (receptor) MAEILLTSVINKSVEIAGNLLIQEGKRLYWLKEDIDWLQREMRHIRSYVDNAKAKEAGGDSRVKNLLKDIQELAGDVEDLLDDFLPKIQQSNKFNYCLKRSSFADEFAMEIEKIKRRVVDIDRIRKTYNIIDTDNNNDDCVLLDRRRLFLHADETEIIGLDDDFNMLQAKLLNQDLHYGVVSIVGMPGLGKTTLAKKLYRLIRDQFECSGLVYVSQQPRASEILLDIAKQIGLTEQKMKENLEDNLRSLLKIKRYVILLDDIWDVEIWDDLKLVLPECDSKVGSRMIITSRNSNVGRYIGGESSLHALQPLESEKSFELFTKKIFNFDDNNSWANASPDLVNIGRNIVGRCGGIPLAIVVTAGMLRARERTEHAWNRVLESMGHKVQDGCAKVLALSYNDLPIASRPCFLYFGLYPEDHEIRAFDLINMWIAEKFIVVNSGNRREAEDLAEDVLNDLVSRNLIQLAKRTYNGRISSCRIHDLLHSLCVDLAKESNFFHTAHDAFGDPGNVARLRRITFYSDNVMIEFFRSNPKLEKLRVLFCFAKDPSIFSHMAYFDFKLLHTLVVVMSQSFQAYVTIPSKFGNMTCLRYLRLEGNICGKLPNSIVKLTRLETIDIDRRSLIQPPSGVWESKHLRHLCYRDYGQACNSCFSISSFYPNIYSLHPNNLQTLMWIPDKFFEPRLLHRLINLRKLGILGVSNSTVKMLSIFSPVLKALEVLKLSFSSDPSEQIKLSSYPHIAKLHLNVNRTMALNSQSFPPNLIKLTLAYFSVDRYILAVLKTFPKLRKLKMFICKYNEEKMDLSGEANGYSFPQLEVLHIHSPNGLSEVTCTDDVSMPKLKKLLLTGFHARISLSERLKKLSK | < 1 HR scale 0-4
TM-2-2 variant pJL 468_E (848 E) (receptor) MAEILLTSVINKSVEIAGNLLIQEGKRLYWLKEDIDWLQREMRHIRSYVDNAKAKEAGGDSRVKNLLKDIQELAGDVEDLLDDFLPKIQQSNKFNYCLKRSSFADEFAMEIEKIKRRVVDIDRIRKTYNIIDTDNNNDDCVLLDRRRLFLHADETEIIGLDDDFNMLQAKLLNQDLHYGVVSIVGMPGLGKTTLAKKLYRLIRDQFECSGLVYVSQQPRASEILLDIAKQIGLTEQKMKENLEDNLRSLLKIKRYVILLDDIWDVEIWDDLKLVLPECDSKVGSRMIITSRNSNVGRYIGGESSLHALQPLESEKSFELFTKKIFNFDDNNSWANASPDLVNIGRNIVGRCGGIPLAIVVTAGMLRARERTEHAWNRVLESMGHKVQDGCAKVLALSYNDLPIASRPCFLYFGLYPEDHEIRAFDLINMWIAEKFIVVNSGNRREAEDLAEDVLNDLVSRNLIQLAKRTYNGRISSCRIHDLLHSLCVDLAKESNFFHTAHDAFGDPGNVARLRRITFYSDNVMIEFFRSNPKLEKLRVLFCFAKDPSIFSHMAYFDFKLLHTLVVVMSQSFQAYVTIPSKFGNMTCLRYLRLEGNICGKLPNSIVKLTRLETIDIDRRSLIQPPSGVWESKHLRHLCYRDYGQACNSCFSISSFYPNIYSLHPNNLQTLMWIPDKFFEPRLLHRLINLRKLGILGVSNSTVKMLSIFSPVLKALEVLKLSFSSDPSEQIKLSSYPHIAKLHLNVNRTMALNSQSFPPNLIKLTLAYFSVDRYILAVLKTFPKLRKLKMFICKYNEEKMDLSGEANGYSFPQLEVLHIHSPNGLSEVTCTDDVSMPKLKKLLLTGFHERISLSERLKKLSK | < 1 HR scale 0-4
TM-2-2 variant pJL 468_D (848 D) (receptor) MAEILLTSVINKSVEIAGNLLIQEGKRLYWLKEDIDWLQREMRHIRSYVDNAKAKEAGGDSRVKNLLKDIQELAGDVEDLLDDFLPKIQQSNKFNYCLKRSSFADEFAMEIEKIKRRVVDIDRIRKTYNIIDTDNNNDDCVLLDRRRLFLHADETEIIGLDDDFNMLQAKLLNQDLHYGVVSIVGMPGLGKTTLAKKLYRLIRDQFECSGLVYVSQQPRASEILLDIAKQIGLTEQKMKENLEDNLRSLLKIKRYVILLDDIWDVEIWDDLKLVLPECDSKVGSRMIITSRNSNVGRYIGGESSLHALQPLESEKSFELFTKKIFNFDDNNSWANASPDLVNIGRNIVGRCGGIPLAIVVTAGMLRARERTEHAWNRVLESMGHKVQDGCAKVLALSYNDLPIASRPCFLYFGLYPEDHEIRAFDLINMWIAEKFIVVNSGNRREAEDLAEDVLNDLVSRNLIQLAKRTYNGRISSCRIHDLLHSLCVDLAKESNFFHTAHDAFGDPGNVARLRRITFYSDNVMIEFFRSNPKLEKLRVLFCFAKDPSIFSHMAYFDFKLLHTLVVVMSQSFQAYVTIPSKFGNMTCLRYLRLEGNICGKLPNSIVKLTRLETIDIDRRSLIQPPSGVWESKHLRHLCYRDYGQACNSCFSISSFYPNIYSLHPNNLQTLMWIPDKFFEPRLLHRLINLRKLGILGVSNSTVKMLSIFSPVLKALEVLKLSFSSDPSEQIKLSSYPHIAKLHLNVNRTMALNSQSFPPNLIKLTLAYFSVDRYILAVLKTFPKLRKLKMFICKYNEEKMDLSGEANGYSFPQLEVLHIHSPNGLSEVTCTDDVSMPKLKKLLLTGFHDRISLSERLKKLSK | < 1 HR scale 0-4
TM-2-2 variant pJL 468_L (848 L) (receptor) MAEILLTSVINKSVEIAGNLLIQEGKRLYWLKEDIDWLQREMRHIRSYVDNAKAKEAGGDSRVKNLLKDIQELAGDVEDLLDDFLPKIQQSNKFNYCLKRSSFADEFAMEIEKIKRRVVDIDRIRKTYNIIDTDNNNDDCVLLDRRRLFLHADETEIIGLDDDFNMLQAKLLNQDLHYGVVSIVGMPGLGKTTLAKKLYRLIRDQFECSGLVYVSQQPRASEILLDIAKQIGLTEQKMKENLEDNLRSLLKIKRYVILLDDIWDVEIWDDLKLVLPECDSKVGSRMIITSRNSNVGRYIGGESSLHALQPLESEKSFELFTKKIFNFDDNNSWANASPDLVNIGRNIVGRCGGIPLAIVVTAGMLRARERTEHAWNRVLESMGHKVQDGCAKVLALSYNDLPIASRPCFLYFGLYPEDHEIRAFDLINMWIAEKFIVVNSGNRREAEDLAEDVLNDLVSRNLIQLAKRTYNGRISSCRIHDLLHSLCVDLAKESNFFHTAHDAFGDPGNVARLRRITFYSDNVMIEFFRSNPKLEKLRVLFCFAKDPSIFSHMAYFDFKLLHTLVVVMSQSFQAYVTIPSKFGNMTCLRYLRLEGNICGKLPNSIVKLTRLETIDIDRRSLIQPPSGVWESKHLRHLCYRDYGQACNSCFSISSFYPNIYSLHPNNLQTLMWIPDKFFEPRLLHRLINLRKLGILGVSNSTVKMLSIFSPVLKALEVLKLSFSSDPSEQIKLSSYPHIAKLHLNVNRTMALNSQSFPPNLIKLTLAYFSVDRYILAVLKTFPKLRKLKMFICKYNEEKMDLSGEANGYSFPQLEVLHIHSPNGLSEVTCTDDVSMPKLKKLLLTGFHLRISLSERLKKLSK | < 1 HR scale 0-4
TM-2-2 variant pJL 468_K (848 K) (receptor) MAEILLTSVINKSVEIAGNLLIQEGKRLYWLKEDIDWLQREMRHIRSYVDNAKAKEAGGDSRVKNLLKDIQELAGDVEDLLDDFLPKIQQSNKFNYCLKRSSFADEFAMEIEKIKRRVVDIDRIRKTYNIIDTDNNNDDCVLLDRRRLFLHADETEIIGLDDDFNMLQAKLLNQDLHYGVVSIVGMPGLGKTTLAKKLYRLIRDQFECSGLVYVSQQPRASEILLDIAKQIGLTEQKMKENLEDNLRSLLKIKRYVILLDDIWDVEIWDDLKLVLPECDSKVGSRMIITSRNSNVGRYIGGESSLHALQPLESEKSFELFTKKIFNFDDNNSWANASPDLVNIGRNIVGRCGGIPLAIVVTAGMLRARERTEHAWNRVLESMGHKVQDGCAKVLALSYNDLPIASRPCFLYFGLYPEDHEIRAFDLINMWIAEKFIVVNSGNRREAEDLAEDVLNDLVSRNLIQLAKRTYNGRISSCRIHDLLHSLCVDLAKESNFFHTAHDAFGDPGNVARLRRITFYSDNVMIEFFRSNPKLEKLRVLFCFAKDPSIFSHMAYFDFKLLHTLVVVMSQSFQAYVTIPSKFGNMTCLRYLRLEGNICGKLPNSIVKLTRLETIDIDRRSLIQPPSGVWESKHLRHLCYRDYGQACNSCFSISSFYPNIYSLHPNNLQTLMWIPDKFFEPRLLHRLINLRKLGILGVSNSTVKMLSIFSPVLKALEVLKLSFSSDPSEQIKLSSYPHIAKLHLNVNRTMALNSQSFPPNLIKLTLAYFSVDRYILAVLKTFPKLRKLKMFICKYNEEKMDLSGEANGYSFPQLEVLHIHSPNGLSEVTCTDDVSMPKLKKLLLTGFHKRISLSERLKKLSK | ~1 HR scale 0-4
TM-2-2 variant pJL 468_H (848 H) (receptor) MAEILLTSVINKSVEIAGNLLIQEGKRLYWLKEDIDWLQREMRHIRSYVDNAKAKEAGGDSRVKNLLKDIQELAGDVEDLLDDFLPKIQQSNKFNYCLKRSSFADEFAMEIEKIKRRVVDIDRIRKTYNIIDTDNNNDDCVLLDRRRLFLHADETEIIGLDDDFNMLQAKLLNQDLHYGVVSIVGMPGLGKTTLAKKLYRLIRDQFECSGLVYVSQQPRASEILLDIAKQIGLTEQKMKENLEDNLRSLLKIKRYVILLDDIWDVEIWDDLKLVLPECDSKVGSRMIITSRNSNVGRYIGGESSLHALQPLESEKSFELFTKKIFNFDDNNSWANASPDLVNIGRNIVGRCGGIPLAIVVTAGMLRARERTEHAWNRVLESMGHKVQDGCAKVLALSYNDLPIASRPCFLYFGLYPEDHEIRAFDLINMWIAEKFIVVNSGNRREAEDLAEDVLNDLVSRNLIQLAKRTYNGRISSCRIHDLLHSLCVDLAKESNFFHTAHDAFGDPGNVARLRRITFYSDNVMIEFFRSNPKLEKLRVLFCFAKDPSIFSHMAYFDFKLLHTLVVVMSQSFQAYVTIPSKFGNMTCLRYLRLEGNICGKLPNSIVKLTRLETIDIDRRSLIQPPSGVWESKHLRHLCYRDYGQACNSCFSISSFYPNIYSLHPNNLQTLMWIPDKFFEPRLLHRLINLRKLGILGVSNSTVKMLSIFSPVLKALEVLKLSFSSDPSEQIKLSSYPHIAKLHLNVNRTMALNSQSFPPNLIKLTLAYFSVDRYILAVLKTFPKLRKLKMFICKYNEEKMDLSGEANGYSFPQLEVLHIHSPNGLSEVTCTDDVSMPKLKKLLLTGFHHRISLSERLKKLSK | < 1 HR scale 0-4
